Laboratory results as given in article PMC11316058.

Target: Hsp90α (N-terminally His-tagged, human) (human) (UniProt P07900)
Assay: ITC; Ahsa1 or Ahsa1^Δ20 (200-300 µM) in the syringe injected into Hsp90-α (30 µM) in the cell; 25 °C; 30 mM Tris pH 7.5, 20 mM KCl, 10% glycerol, 1 mM TCEP; two-site-binding model; three independent experiments

Substance | Kd [nM]
Ahsa1^Δ20 (C-terminal 6xHis) (from UniProt O95433 21-338) (domain or fragment) | 3200
full-length Ahsa1 (C-terminal 6xHis) (from UniProt O95433 1-338) (natural protein) | 1730
